Experimental data: patent publication US20200277339A1 (GENOME PROTECTION, published 2020)
Substitutions are numbered along the chain they refer to.

B1: CBLB502 mutant 33MIMX (ligand)
chain: MRGSHHHHHHGMASMTGGQQMGRDLYDLVPRGSAKDPSGLRINSAKDDAAGQAIANRFTSNIKGLTQASRNAADGISIAQTTEGALNEINNNLQRVRELSVQATNGTNSDSDLKSIQDEIQQRLEEIDRVSNQTQANGVKVLSQDNAMKIQVGANDGAAITIDLQKIDVKSLGLDGFNVNSPGISGGGGGILDSMGTLINEDAAAAKKSTANPLASIDSALSKVDAVRSSLGAIQARFAAAIANLGNTVTNLNSARSRIEDADYATEVSNMSKAQILQQAGTSVLAQANQVPQNVLSLLR
B2: CBLB502 mutant MIM1 (ligand)
chain: MRGSHHHHHHGMASMTGGQQMGRDLYDDDDKDPMAQVINTNSLSLLTQNNLNKSQSSLSSAIERLSSGLRINSAKDDAAGQAIANRFTSNIKGLTQASRNANDGISIAQTTEGALNEINNNLQRVRELSVQATNGTNSDSDLKSIQDEIQQRLEEIDRVSNQTQFNGVKVLSQDNQMKIQVGANDGETITIDLQKIDVKSLGLDGFNVNSPGISGGGGGILDSMGTLINEDAAAAKKSTANPLASIDSALSKVDAVRSSLGAIQNRFDSAITNLGNTVTALASARSRIEDADYATEVSNMSKAQILQQAGTSVLAQANQVPQNVLSLLR
B3: CBLB502 mutant MIM3 (ligand)
chain: B2 chain with N273A, N276A, R285A
B4: CBLB502 mutant MIM2 (ligand)
chain: B2 chain with R285A
B5: CBLB502 mutant MIM5 (ligand)
chain: B2 chain with Q264A, N265K, R266A, N273A, N276A, R285A
B6: CBLB502 mutant MIXC (ligand)
chain: MSGLRINSAKDDAAGQAIANRFTSNIKGLTQASRNANDGISIAQTTEGALNEINNNLQRVRELSVQATNGTNSDSDLKSIQDEIQQRLEEIDRVSNQTQFNGVKVLSQDNQMKIQVGANDGETITIDLQKIDVKSLGLDGFNVNSPGSTANPLASIDSALSKVDAVRSSLGAIQARFAAAIANLGNTVTNLNSARSRIEDADYATEVSNMSKAQILQQAGTSVLAQANQVPQNVLSLLVPRGSHHHHHHG
B7: CBLB502 mutant MIM4 (ligand)
chain: MRGSHHHHHHGMASMTGGQQMGRDLYDDDDKDPMAQVINTNSLSLLTQNNLNKSQSSLSSAIERLSSGLRINSAKDDAAGQAIANRFTSNIKGLTQASRNANDGISIAQTTEGALNEINNNLQRVRELSVQATNGTNSDSDLKSIQDEIQQRLEEIDRVSNQTQFNGVKVLSQDNQMKIQVGANDGETITIDLQKIDVKSLGLDGFNVNSPGISGGGGGILDSMGTLINEDAAAAKKSTANPLASIDSALSKVDAVRSSLGAIDSAITALGATVTALASAASRIEDADYATEVSNMSKAQILQQAGTSVLAQANQVPQNVLSLLR
B8: CBLB502 variant 445 (ligand)
chain: MRGSHHHHHHGMASMTGGQQMGRDLYDLVPRGSAKDPMAQVINTNSLSLLTQNNLNKSQSSLSSAIERLSSGLRINSAKDDAAGQAIANRFTSNIKGLTQASRNANDGISIAQTTEGALNEINNNLQRVRELSVQATNGTNSDSDLKSIQDEIQQRLEEIDRVSNQTQFNGVKVLSQDNQMKIQVGANDGETITIDLQKIDVKSLGLDGFNVNSPGISGGGGGILDSMGTLINEDAAAAKKSTANPLASIDSALSKVDAVRSSLGAIQNRFD
B9: CBLB502 variant 467 (ligand)
chain: MRGSHHHHHHGMASMTGGQQMGRDLYDLVPRGSAKDPMAQVINTNSLSLLTQNNLNKSQSSLSSAIERLSSGLRINSAKDDAAGQAIANRFTSNIKGLTQASRNANDGISIAQTTEGALNEINNNLQRVRELSVQATNGTNSDSDLKSIQDEIQQRLEEIDRVSNQTQFNGVKVLSQDNQMKIQVGANDGETITIDLQKIDVKSLGLDGFNVNSPGISGGGGGILDSMGTLINEDAAAAKKSTANPLASIDSALSKVDAVRSSLGAIQNRFDSAITNLGNTVTNLNSARSRIEDA
B10: CBLB502 variant MF227C (ligand)
chain: MSGLRINSAKDDAAGQAIANRFTSNIKGLTQASRNANDGISIAQTTEGALNEINNNLQRVRELSVQATNGTNSDSDLKSIQDEIQQRLEEIDRVSNQTQFNGVKVLSQDNQMKIQVGANDGETITIDLQKIDVKSLGLDGFNVNSPGSTANPLASIDSALSKVDAVRSSLGAIQNRFDSAITNLGNTVTNLNSARSRIEDADYANQVPQNVLSLLVPRGSHHHHHHG
B11: CBLB502 variant 461 (ligand)
chain: MRGSHHHHHHGMASMTGGQQMGRDLYDLVPRGSAKDPMAQVINTNSLSLLTQNNLNKSQSSLSSAIERLSSGLRINSAKDDAAGQAIANRFTSNIKGLTQASRNANDGISIAQTTEGALNEINNNLQRVRELSVQATNGTNSDSDLKSIQDEIQQRLEEIDRVSNQTQFNGVKVLSQDNQMKIQVGANDGETITIDLQKIDVKSLGLDGFNVNSPGISGGGGGILDSMGTLINEDAAAAKKSTANPLASIDSALSKVDAVRSSLGAIQNRFDSAITNLGNTVTNLNSAR
B12: CBLB502 (ligand)
chain: not shown
B13: CBLB502 variant 485D (ligand)
chain: MSGLRINSAKDDAAGQAIANRFTSNIKGLTQASRNANDGISIAQTTEGALNEINNNLQRVRELSVQATNGTNSDSDLKSIQDEIQQRLEEIDRVSNQTQFNGVKVLSQDNQMKIQVGANDGETITIDLQKIDVKSLGLDGFNVNSPGSTANPLASIDSALSKVDAVRSSLGAIDSAITALGNTVTNLNSARSRIEDADYATEVSNMSKAQILQQAGLVPRGSHHHHHHG

The binders below were run against TLR5 of the cell-based reporter assays (assay: cell-based or functional assay).

| Binder | Signaling EC50 Normalized by CBLB502 [fold vs CBLB502] |
| --- | --- |
| B1 | 1.3 |
| B2 | 0.9 |
| B3 | 4.6 |
| B4 | 1.2 |
| B5 | 54 |
| B6 | 1.5 |
| B7 | 37 |

Molecular target: TLR5 of the cell-based reporter assays
Test: cell-based or functional assay
Remark: another data set of the same source

| Binder | Relative EC50 vs 502, Signaling (LecZ) [fold vs 502] | Relative EC50 vs 502, Signaling (Luc) [fold vs 502] |
| --- | --- | --- |
| B8 | 694 | 141000 |
| B9 | 57 | 71 |
| B10 | 5.5 |  |
| B11 | 105 | 97 |
| B12 | 1 | 1 |
| B13 | 44 |  |
